Drawing on the supplement of paper PMC6755084, this text covers fraction ligated for 42 variants.

B1: minF1; a variant is named by its letters at N, in order (parent)
chain: GAGACCGCAACTGAAAAGTTGTTNNNNAANNNNGGNTNNATTTCTGCACGTAGAAGCAAAAGGC

The data set covers variants of B1. In words: fraction ligated after 30 min (ligated reads / total reads); higher = more ligase activity. The following applies: with F1*subA RNA substrate (template-directed ligation), 42 °C. The procedure: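 Chip-synthesised pool of minF1 ligase ribozyme variants (single and double substitutions, single to quadruple deletions, bulge and P2 designed variants) was transcribed with T7 and reacted as a pool with excess substrate F1*subA for 30 min at 42 C in 50 mM EPPS pH 8.5, 25 mM MgCl2. Ligated and unligated RNAs were separated by PAGE, barcoded by RT and deep sequenced; fraction ligated = ligated reads / total reads, relative activity = FL / FL of wild-type minF1 (0.76); sequencing FL correlated with PAGE (R2 = 0.98). Sequences are the DNA template of the ribozyme.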
As to GAGACCGCAACTGAAAAGTTGTTATCAAAAATGGGTTGAATTTCTGCACGTAGAAGCAAAAGGC, the fraction ligated stood at 0.00252.
Consider GAGACCGCAACTGAAAAGTTGTTATCAAAAGGTGGGTTAATTTCTGCACGTAGAAGCAAAAGGC, for which the fraction ligated came to 0.00438.
With GAGACCGCAACTGAAAAGTTGTTATCAAAAGGTGGGTTGATTTCTGCACGTAGAAGCAAAAGGC, the fraction ligated amounted to 0.00687.
Take GAGACCGCAACTGAAAAGTTGTTATCAGAAATGGTGGTTATTTCTGCACGTAGAAGCAAAAGGC: the fraction ligated turned out to be 0.00103.
With GAGACCGCAACTGAAAAGTTGTTATCAGAATGGTGGGTTGTTTCTGCACGTAGAAGCAAAAGGC, the fraction ligated stood at 0.00157.
GAGACCGCAACTGAAAAGTTGTTATCAGAAGGATGGGTTATTTCTGCACGTAGAAGCAAAAGGC: the fraction ligated was 0.00162.
Regarding GAGACCGCAACTGAAAAGTTGTTATCAAAATGATGGTTGATTTCTGCACGTAGAAGCAAAAGGC, the fraction ligated was 0.00509.
Then GAGACCGCAACTGAAAAGTTGTTATCAGAATGATGGGTTGTTTCTGCACGTAGAAGCAAAAGGC, with 0.000608; and GAGACCGCAACTGAAAAGTTGTTATCAGAAGGTGGGTTAATTTCTGCACGTAGAAGCAAAAGGC, with 0.00466.
In the case of GAGACCGCAACTGAAAAGTTGTTATCAGAAATTGGTTGAATTTCTGCACGTAGAAGCAAAAGGC, the fraction ligated was 0.00721.
As for GAGACCGCAACTGAAAAGTTGTTATCAGAAATGGGTTGAATTTCTGCACGTAGAAGCAAAAGGC, the fraction ligated is 0.00482.
Take GAGACCGCAACTGAAAAGTTGTTATCAAAATGAGGTTGAATTTCTGCACGTAGAAGCAAAAGGC: the fraction ligated is 0.00478.
Then GAGACCGCAACTGAAAAGTTGTTATCAGAAATGGGGGTTATTTCTGCACGTAGAAGCAAAAGGC, with 0.00127; and GAGACCGCAACTGAAAAGTTGTTATCAAAATGGATGGGTTTTTCTGCACGTAGAAGCAAAAGGC, with 0.0016; and GAGACCGCAACTGAAAAGTTGTTATCAAAATGGGGGTTAATTTCTGCACGTAGAAGCAAAAGGC, with 0.00273.
Then GAGACCGCAACTGAAAAGTTGTTATCAAAATGGGGGTTGATTTCTGCACGTAGAAGCAAAAGGC, with 0.00492; and GAGACCGCAACTGAAAAGTTGTTATCAGAAGGGGGTTGAATTTCTGCACGTAGAAGCAAAAGGC, with 0.00483.
Then GAGACCGCAACTGAAAAGTTGTTATCAGAATGATGGGTTATTTCTGCACGTAGAAGCAAAAGGC, with 0.00246; and GAGACCGCAACTGAAAAGTTGTTATCAGAAGATGGGTTGATTTCTGCACGTAGAAGCAAAAGGC, with 0.0128; and GAGACCGCAACTGAAAAGTTGTTATCAGAAATGGAGGTTGTTTCTGCACGTAGAAGCAAAAGGC, with 0.00174.
As for GAGACCGCAACTGAAAAGTTGTTATCAGAAGGATGGTTGATTTCTGCACGTAGAAGCAAAAGGC, the fraction ligated turned out to be 0.00593.
Take GAGACCGCAACTGAAAAGTTGTTATCAAAAGGATGGTTGATTTCTGCACGTAGAAGCAAAAGGC: the fraction ligated is 0.00633.
For the variant GAGACCGCAACTGAAAAGTTGTTATCAGAATGAGGGTTAATTTCTGCACGTAGAAGCAAAAGGC, the fraction ligated stood at 0.00241.
Then GAGACCGCAACTGAAAAGTTGTTATCAAAATAGGGTTGAATTTCTGCACGTAGAAGCAAAAGGC, with 0.00321; and GAGACCGCAACTGAAAAGTTGTTATCAGAAGGTGGTTGAATTTCTGCACGTAGAAGCAAAAGGC, with 0.00202.
Then GAGACCGCAACTGAAAAGTTGTTATCAAAAGAGGGTTGAATTTCTGCACGTAGAAGCAAAAGGC, with 0.0037; and GAGACCGCAACTGAAAAGTTGTTATCAAAAGATGGTTGAATTTCTGCACGTAGAAGCAAAAGGC, with 0.00249; and GAGACCGCAACTGAAAAGTTGTTATCAAAATGATGGGTTGTTTCTGCACGTAGAAGCAAAAGGC, with 0.00152.
For the variant GAGACCGCAACTGAAAAGTTGTTATCAAAAGGATGGGTTATTTCTGCACGTAGAAGCAAAAGGC, the fraction ligated stood at 0.00324.
Then GAGACCGCAACTGAAAAGTTGTTATCAAAAGGGGGTTGAATTTCTGCACGTAGAAGCAAAAGGC, with 0.00247; and GAGACCGCAACTGAAAAGTTGTTATCAGAATATGGGTTAATTTCTGCACGTAGAAGCAAAAGGC, with 0.00429; and GAGACCGCAACTGAAAAGTTGTTATCAGAAATGGTGGTTGTTTCTGCACGTAGAAGCAAAAGGC, with 0.00187.
Then GAGACCGCAACTGAAAAGTTGTTATCAGAAGGAGGTTGAATTTCTGCACGTAGAAGCAAAAGGC, with 0.000468.
Then GAGACCGCAACTGAAAAGTTGTTATCAAAATGAGGGTTAATTTCTGCACGTAGAAGCAAAAGGC, with 0.00236.
In the case of GAGACCGCAACTGAAAAGTTGTTATCAAAATGAGGGTTGATTTCTGCACGTAGAAGCAAAAGGC, the fraction ligated is 0.00492.
GAGACCGCAACTGAAAAGTTGTTATCAGAAGATGGTTGAATTTCTGCACGTAGAAGCAAAAGGC: the fraction ligated came to 0.00251.
Regarding GAGACCGCAACTGAAAAGTTGTTATCAGAAATTGGGTTGATTTCTGCACGTAGAAGCAAAAGGC, the fraction ligated was 0.00512.
As for GAGACCGCAACTGAAAAGTTGTTATCAGAAGGAGGGTTAATTTCTGCACGTAGAAGCAAAAGGC, the fraction ligated was found to be 0.00255.
Then GAGACCGCAACTGAAAAGTTGTTATCAAAATATGGTTGAATTTCTGCACGTAGAAGCAAAAGGC, with 0.00211; and GAGACCGCAACTGAAAAGTTGTTATCAGAAATGGATGGTTTTTCTGCACGTAGAAGCAAAAGGC, with 0.000969; and GAGACCGCAACTGAAAAGTTGTTATCAAAAGGAGGGTTAATTTCTGCACGTAGAAGCAAAAGGC, with 0.00502.
Take GAGACCGCAACTGAAAAGTTGTTATCAAAAGGAGGGTTGATTTCTGCACGTAGAAGCAAAAGGC: the fraction ligated is 0.00548.
